Measured values reported in a protein production outcome set (Wang et al. 2014).

Assay: label from the status in PepcDB records

ATPPISNLTKTASESISNLSEAGSIKKGERELKIGDRVLVGGTKAGVVRFLGETDFAKGEWCGVELDEPLGKNDGAVAGTRYFQCQPKYGLFAPVHKVTKIGFPSTTPAKAKANAVRRVMATTSASLKRSPSASSLSSMSSVASSVSSRPSRTGLLTET
protein production: not failed

PDIGTFTVRPLDPTRDAELLHGWVTHPKSAFWMMQEARLHDVEREYMAIAASEYHDAFLGLLDDEPVFLMEKYDPAHVELVGLYEPEPGDVGMHFLVAPTDTPVHGFTRAVITAVMEHLFADPATRRVVVEPDVGNKAVHALNEAVG
protein production: failed

MAQSETVERILDAAEQLFAEKGFAETSLRLITSKAGVNLAAVNYHFGSKKALIQAVFSRFLGPFCASLEKELDRRQAKPEAQHATLEDLLHLLVSQAMAVKPRSGNDLSIFMRLLGLAFSQSQGHLRKYLEEVYGKVFRRYMLLVNEAAPKLPPIELFWRVHFMLGAAAFSMSGIKALRAMAETDFGVNTSTEQVMHLMVPFFAAGMRAESGIDDPLLAGAQLRPRNKTPAKA
protein production: not failed

MYKLGVFLLATLLSANTQKVSDIAKDIQHKETLLKKTHEEKNQLNSRLSSLGEAIRSKELQKAEMERQMIALKKSLEKNRNESLAQEKVLTNYRKSLDHLQKKRSFLQKRVFDTLLQDFLFSQALKGQNLASSNDVVLQVAFENLHQSTLSKMSQLSQEEKELNTQALKVKNSIQKISSIIDEQKTREVTLKSLKTEQDKLILSMQKDYAIYNQRLTLLEKERQNLNALLKRLNIIKQNRENEEKVSLKKSSQALEVKQVASSYQNINTTSYNGPKTIAPLNDYEVVQKFGPYIDPVYNLKIFSESITLVSKTPNALVRNVLDGKIVFAKEINMLKKVVIIEHKNGIRTIYSQLDKIAPTIKSGMRIQKGYVLGRIDQRLGFEVTMREKHINPLELIARN
protein production: failed

AIANDDRATAFNALKNKTVCVQGDGNSRQFYHALVEILSNHSSAIPVNKNGNDFCNAPFAQCPQDTYYFDLVDKSDNLSVKLYWRWAPEFSDIECPMKVPSGFTPGSNYSFPSGPDTLSCDINIMDAGQWELFEKDANVTTAGYSQGVSNLSKCFSSDKSAKYFWIAAYALTPEQLQIHLPYNNTDVERINEVATQGLNSTACVLNGYDVTVNAFNDTKEATTDGIHYLGWINEQVVHLFFNAVTNSSAPTVPSSNVSVTSPNVQLGQVPNLNPSTTNSFLPVQTIVTVPSSSATSASSGLNFGGSSQGGGSGIPQL
protein production: failed

MLGLKTSIIGRRVIYFQEITSTNEFAKTSYLEEGTVIVADKQTMGHGRLNRKWESPEGGLWLSIVLSPKVPQKDLPKIVFLGAVGVVETLKEFSIDGRIKWPNDVLVNYKKIAGVLVEGKGDKIVLGIGLNVNNKVPNGATSMKLELGSEVPLLSVFRSLITNLDRLYLNFLKNPMDILNLVRDNMILGVRVKILGDGSFEGIAEDIDDFGRLIIRLDSGEVKKVIYGDVSLRFL
protein production: not failed

MAEAGDENLYAAARDIARALGKDPSAAGDILQILSGYGASGNRGGDPRPTPSRGGSNVNFDRALTSLERQISSYIVEDRPIWSDPVDSRTFLDSVDELLAIAGDLRSMAGDKSVAVCQSRADELIQQVMFRLQEEFGFVMDRAPDSFDSDDEFPGEEDNDTSDGVIVARPITDYKIVIEALQSSVIGDLNAIAVRMVAGGFAKECSRVYSSRRREFLEESLSRLHLRGLSMEEVQESPWQDLEDEIDRWIKAVTLIFHVFFPSERLLCDRVFSDLPVSSVTDLSFMEVCRGTTTQLLNFADAIALGSRLPERLFKVVDLYEAMQDLIPKMETLFSDRYCSPLRHEALAIHKRLGEAIRGIFMELENLIRRDPPKTAFPGGGIHPITRYVMNYLRAACKSRQSLEQILDQTGNETGSDTRPLSVQIIWVLELLESNLEGKKRTYRDPSLCFLFMMNNDKYILDKAKDNELGLVLGEDWIVKHAAKLRQYHSNYRRSSWNQVVGLLRTDGPYPKLVENLRLFKSQFDEVCKVQSQWVVSDGQLREELRSSVAGIVSPAYSNFIRRLKESPEINGRRGEPFIPYTVEDVEFIIKRLFKESSS
protein production: not failed

MAWFLLVIAGIEEIIAAIAMKYIDGTRKKWPIIVMTVGFGLSFYCLSQAMIVLPAGVAYAVWTGIGSIGVSAVGLIWFKERFQLSQVISLCLILAGVIGLRLTSSS
protein production: failed

MLEAPLLSICIPAYNRPNWLQRGLESIAVGEGSDIEIVITDDSDTDQGQAIASEVLKNWSGSWCYEHHQQPLGMAQNWNRAIQWATGQYVMVLHDDDFFLPQGLGLLVNKLRQLGSSSPVLLFGVRVVDAQERVVKRQGFRQDKLLPPHDALIRLFSDSSFVRFPAMVIRRDLFTEVGYFNPDWREPCDLEMWMRLFARYGVYCCREATVAYRVHGQALTMGSFHGETVNILLRLFGELEKLNILTTRDIEFCKGLFFHQYILAGAWRQLRRRRWREFKQVMGLFDLPELKSLSCPVKWRFLRGLFSLTLEHHHHHH
protein production: failed

MFRPENVQALAGLALTLGLCWLVSENRKRFPWGLAIGAVVIQVLLVLVLFGLPQAQQMLRGVNGAVEGLAASTQAGTAFVFGFLAGGDQPYPVSNPGAGFIFAFRVLPVILVVCALSALLWHWKILKWLAQGFGFVFQKTLGLRGPPALATAATIFMGQVEGPIFIRAYLDKLSRSELFMLIAVGMACVSGSTMVAYATILADVLPNAAAHVLTASIISAPAGVLLARIIVPSDPMEKSADLDLSTEDKTYGSSIDAVMKGTTDGLQIALNVGATLIVFVALATMVDKVLGAFPPVGGEPLSIARGLGVVFAPLAWSMGIPWKEAGTAGGLLGVKLILTEFTAFIQLSKVGEALLDERTRMIMTYALCGFANIGSVGMNVAGFSVLVPQRRQEVLGLVWKAMMAGFLATCLTASLVGLMPRSLFGL
protein production: failed

MALGLLPLVLLTLSIFIYLVSKMSWKMGALLNFLAGLFTILYVFTLKVGTFEKLDLFGLNIQFEWTNVSFYFSFVSLLVIVSVMLFSTKWLETQKYRASYNMFLLMVTAGSLGVFMAADLITLYVFWEIAVLSSLLIVPMEKKEARKAVVVYAVMSAVGTYAFLYGTFLAYQRYGTLNIHGIAQGMLNDTSIGFKMAVFLLLSAAGIAKSGIFPLHIWLRETHGLAPNAFSSVLSGQFIKLGNYIFLLVLSVIPSLKVFSEVTVYSGIPLPNYILIALGNVSIVIGTLMAIKQDDMKMLMAYSSVANGGYILIGIGTMDPLGFEGGMFHIFNHAVASAVIFMAFAAVIYRTKTQKISEMGGLIHKMPVTFLVYLFSIISLAGIPPMSGFISKWMIYQALVRKGMFITAFLAFFGSIGSFLYVFRPLAGVFLGQLPRKYRDVKEAPAVMLTPMVLLVLISFFLGVWPFPILQAIEKIRVDLDVAPSFKISDPENWLVKGFAGSWNPVLVFGLFLVGFIVAYILYSLFPRPKKVDLLAPHREEGTPINIYTGGEFIYNPDLYHYNTKFYAGFERMYEKHPSWEKLLKMFGKLFHDAGEWIHSWFFEPSSSAYTFWVVVTLLLVFWVRW
protein production: failed

MERLKIQVLVDNNTYIDRYFVGEPAVSYYIEIDGNRILFDSGYSDVFISNAEKLNIDLGNLTHVVFSHGHNDHTRGIQFLENRYDLSTVELVSHPNCFIPRKHGEKSIGAPFSAEEIKNIFMYNPKDKPFNLSKNCVFLGEIPSINDFEKRAKIGKCKIGDLWEDDYVLDDSAIVCKTDKGIFIVTGCSHSGICNIVEYAKKVCGDDRVIGILGGFHLFELNNRLDSTIQYLDKEEIRMLYPCHCVSFKVKAKMNEILNINEVGVGLTISILEHHHHHH
protein production: not failed

MRERVLFFDLLRCVAAVAVIAIHVLAPYRNELGVIPMDQWLTAVGVNSVTRWAVPVFILITGALMLSDTRPFDGKYYVKRRLGKVLVPFLIWSTFYAYLSGWTAQGFDFETVKEVLSNSPFHATYYHLGFFYYFIPLYFVIPLFQWMARNVDDNVLYTYLAFWMFTSTLFLFKIDGPWSNQMWLYMGYLPLGYVLFQKVPLNRSMVTLFTGFGLVALAVTFTMVVTNSLEAEKYTVGRWLSYKTLNVILAASMIFMLCRYFGEGLPKNVQKVVSFISQHSLGIYLLHPIFLWPMKEFGWYTGHPGWVIPVWIVLSGAGALAMSYLFSKSAKTRWLLP
protein production: failed
